# Literature values, collected in US20090074843A1, “Use of epi-hne 1-4” (priority 2004, published 2009).
# T1: human neutrophil elastase (Homo sapiens, UniProt P08246)
# T1 sequence (P08246 30-267): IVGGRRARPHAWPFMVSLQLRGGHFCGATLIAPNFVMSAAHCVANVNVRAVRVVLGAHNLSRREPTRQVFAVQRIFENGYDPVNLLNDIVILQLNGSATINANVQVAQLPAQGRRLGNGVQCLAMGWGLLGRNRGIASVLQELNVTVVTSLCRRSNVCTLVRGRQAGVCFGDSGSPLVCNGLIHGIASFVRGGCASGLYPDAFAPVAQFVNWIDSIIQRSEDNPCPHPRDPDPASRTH
# B1: SLPI: naturally occurring elastase inhibitor, serum protease inhibitor (protein, UniProt P03973 26-132, looked up)
# Antileukoproteinase: SGKSFKAGVCPPKKSAQCLRYKKPECQSDWQCPGKKRCCPDTCGIKCLDPVDTPNPTRRKPGKCPVTYGQCLMLNPPNFCEMDGQCKRDLKCCMGMCGKSCVSPVKA
# Experiments:
# [1] = chloramineT, up to 50 mol-equivalents
# [2] = target: Human Urine Urokinase (Homo sapiens, UniProt P00749); conditions: Human Urine Urokinase vs Elastase
# [3] = target: Human Serum Plasmin (Homo sapiens, UniProt P00747); conditions: Human Serum Plasmin vs Elastase
# [4] = tested on: Human Pancreatic Chymotrypsin; conditions: Human Pancreatic Chymotrypsin vs Elastase
# [5] = target: Kallikrein (Homo sapiens, UniProt P03952); conditions: Human Serum Kallikrein vs Elastase
# [6] = target: Human Plasma Factor Xa (Homo sapiens, UniProt P00742); conditions: Human Plasma Factor Xa vs Elastase
# [7] = target: Thrombin (Homo sapiens, UniProt P00734); conditions: Human Serum Thrombin vs Elastase
# [8] = target: T1, human neutrophil elastase; conditions: comparison values
# Chain of Human Serum Plasmin (P00747 581-810 limits assumed): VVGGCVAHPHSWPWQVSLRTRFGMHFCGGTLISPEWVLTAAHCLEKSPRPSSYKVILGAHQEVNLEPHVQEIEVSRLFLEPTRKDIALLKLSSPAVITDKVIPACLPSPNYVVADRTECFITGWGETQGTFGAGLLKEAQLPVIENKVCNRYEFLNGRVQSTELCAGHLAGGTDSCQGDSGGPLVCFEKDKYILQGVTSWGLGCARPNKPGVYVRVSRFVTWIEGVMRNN
# Chain of Human Serum Plasmin (P00747 98-580 partner limits assumed): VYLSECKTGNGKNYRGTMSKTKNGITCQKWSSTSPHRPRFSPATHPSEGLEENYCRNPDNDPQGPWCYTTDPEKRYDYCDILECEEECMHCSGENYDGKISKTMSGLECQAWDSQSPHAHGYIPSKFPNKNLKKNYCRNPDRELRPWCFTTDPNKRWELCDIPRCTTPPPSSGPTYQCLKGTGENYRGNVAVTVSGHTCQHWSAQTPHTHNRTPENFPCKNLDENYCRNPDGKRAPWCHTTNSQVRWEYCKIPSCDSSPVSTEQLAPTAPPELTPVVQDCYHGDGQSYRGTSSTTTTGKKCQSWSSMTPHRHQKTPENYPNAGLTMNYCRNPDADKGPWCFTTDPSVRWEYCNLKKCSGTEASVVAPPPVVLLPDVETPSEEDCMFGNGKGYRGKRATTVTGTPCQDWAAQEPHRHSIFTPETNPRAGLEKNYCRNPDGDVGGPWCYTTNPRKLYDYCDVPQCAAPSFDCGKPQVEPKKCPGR
# Chain of Human Plasma Factor Xa (P00742 235-488 limits assumed): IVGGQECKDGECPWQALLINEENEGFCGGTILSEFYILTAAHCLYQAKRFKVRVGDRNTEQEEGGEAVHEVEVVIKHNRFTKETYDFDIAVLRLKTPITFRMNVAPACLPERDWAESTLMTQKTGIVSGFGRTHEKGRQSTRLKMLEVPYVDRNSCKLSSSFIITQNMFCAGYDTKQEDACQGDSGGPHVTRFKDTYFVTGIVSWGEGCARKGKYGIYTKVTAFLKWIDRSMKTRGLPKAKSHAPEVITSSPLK
# Chain of Human Plasma Factor Xa (P00742 41-179 partner limits assumed): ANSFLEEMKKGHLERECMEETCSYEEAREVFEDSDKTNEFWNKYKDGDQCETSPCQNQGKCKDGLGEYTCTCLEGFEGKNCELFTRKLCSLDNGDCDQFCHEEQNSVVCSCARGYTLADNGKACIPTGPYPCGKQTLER
# Chain of Kallikrein (P03952 391-638 limits assumed): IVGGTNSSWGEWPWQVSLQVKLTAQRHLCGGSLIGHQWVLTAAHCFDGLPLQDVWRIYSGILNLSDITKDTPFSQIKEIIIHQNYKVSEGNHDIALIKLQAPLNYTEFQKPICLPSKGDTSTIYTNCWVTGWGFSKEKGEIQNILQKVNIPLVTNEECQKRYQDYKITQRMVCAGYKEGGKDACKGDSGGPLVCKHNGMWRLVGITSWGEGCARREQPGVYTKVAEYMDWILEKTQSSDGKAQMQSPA
# Chain of Kallikrein (P03952 20-390 limits assumed): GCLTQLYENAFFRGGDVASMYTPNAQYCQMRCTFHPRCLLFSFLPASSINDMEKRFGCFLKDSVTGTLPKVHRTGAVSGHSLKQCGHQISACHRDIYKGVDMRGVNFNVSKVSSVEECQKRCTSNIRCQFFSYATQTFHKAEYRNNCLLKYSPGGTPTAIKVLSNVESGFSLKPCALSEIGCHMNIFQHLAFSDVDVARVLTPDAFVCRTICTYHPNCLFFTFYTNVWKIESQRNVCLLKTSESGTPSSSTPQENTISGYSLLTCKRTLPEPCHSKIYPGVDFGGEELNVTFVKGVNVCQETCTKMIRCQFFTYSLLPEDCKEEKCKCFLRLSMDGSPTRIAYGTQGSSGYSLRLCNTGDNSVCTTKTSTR
Molecule,resistance to oxidation (retention of activity) [1],selectivity in Ki values [2],selectivity in Ki values [3],selectivity in Ki values [4],selectivity in Ki values [5],selectivity in Ki values [6],selectivity in Ki values [7],Kd [8] [µM]
"AAT: naturally occurring elastase inhibitor, serum protease inhibitor [reference compound]",destroy the activity,,,,,,,
EPI-HNE4: 56 amino acid protein (SEQ ID NO: 1) derived from second Kunitz type domain of human inter-alpha-inhibitor light chain (ITI-D2); elastase inhibitor (EACNLPIVRGPCIAFFPRWAFDAVKGKCVLFPYGGCQGNGNKFYSEKECREYCGVP; P. pastoris; EPI-HNE4 N-terminal modified to facilitate secretion),,more than 10^6,more than 10^6,more than 10^6,more than 10^6,more than 10^6,more than 10^6,
B1,destroy the activity,,,,,,,0.1
